B1: Hammerhead Ribozyme (parent)
chain: ACCGGAUGUGCUUUCCGGUCUGAUGAGUCCGUGAGGACGAAACAG

For 167 variants, self-cleavage results are on record in the RNAGym collection of RNA variant scans (doi:10.7554/elife.80360).

The variants in the series derive from B1. The series is described as follows: self-cleavage, relative activity (ratio to wild type); higher = more cleavage; co-transcriptional.
In the case of U19G G22C, the self-cleavage is 0.308.

On to U19G G22A, for which the self-cleavage worked out at 0.394. To U19G G22U belongs 0.304; to C20A G27C, 0.369; to C20A G27A, 0.333. For C20A G27U the value was 0.302; for U19A G33C, 0.291; for U19A G33A, 0.356. To U19A G33U belongs 0.398. Regarding C20A A26G, the self-cleavage was found to be 0.344. To C20A A26C belongs 0.397.

As to C20A A26U, the self-cleavage stood at 0.342. Regarding U19C G36U, the self-cleavage is 0.443. To U19C G36C belongs 0.427; to U19C G36A, 0.475. In the case of U19C A26U, the self-cleavage was determined as 0.492. For U19C A26G the value was 0.242. To U19C A26C belongs 0.367; to C20A A23G, 0.27.

As for C20A A23U, the self-cleavage is 0.36. For C20A A23C the value was 0.353; for C20G G25A, 0.314; for C20G G25U, 0.313. For C20G G25C the value was 0.503; for U19A C38G, 0.365; for U19A C38A, 0.313.

Take U19A C38U: the self-cleavage was determined as 0.358.

With U19A G25U, the self-cleavage was found to be 0.35. On to U19A G25A, for which the self-cleavage is 0.347. For U19A G25C the value was 0.296; for C20A C43G, 0.25.

In the case of C20A C43A, the self-cleavage is 0.321. To C20A C43U belongs 0.342.

With U19G A44U, the self-cleavage is 0.286. To U19G A44C belongs 0.361; to U19G A44G, 0.623; to U19G C30U, 0.399.

As for U19G C30G, the self-cleavage was determined as 0.41. To U19G C30A belongs 0.376. With U19G U21A, the self-cleavage came to 0.323. Take U19G U21C: the self-cleavage stood at 0.471. In the case of U19G U21G, the self-cleavage amounted to 0.328. Take C20A G45U: the self-cleavage is 0.357. For C20A G45C the value was 0.414.

As to C20A G45A, the self-cleavage stood at 0.396.

As for U19G G27U, the self-cleavage was 0.292.

With U19G G27C, the self-cleavage came out at 0.288. To U19G G27A belongs 0.301; to C20A U32C, 0.541; to C20A U32G, 0.255.

For the variant C20A U32A, the self-cleavage is 0.471. For U19G A37C the value was 0.331; for U19G A37U, 0.339; for U19G A37G, 0.3. Turning to C20G A40G, the self-cleavage turned out to be 0.324. Take C20G A40U: the self-cleavage turned out to be 0.355. To C20G A40C belongs 0.322; to U19G A26C, 0.323; to U19G A26G, 0.319.

For the variant U19G A26U, the self-cleavage is 0.332.

In the case of C20G A44U, the self-cleavage was found to be 0.309. To C20G A44G belongs 0.629; to C20G A44C, 0.278; to U19G A41G, 0.345.

On to U19G A41C, for which the self-cleavage was 0.327. On to U19G A41U, for which the self-cleavage came to 0.342.

U19C G45C: the self-cleavage amounted to 0.519. For U19C G45A, the self-cleavage was determined as 0.384. For U19C G45U the value was 0.439; for U19A G22C, 0.356; for U19A G22A, 0.346. To U19A G22U belongs 0.3; to C20A G35U, 0.345. For the variant C20A G35A, the self-cleavage worked out at 0.446.

For the variant C20A G35C, the self-cleavage came out at 0.385.

For the variant U19G U24C, the self-cleavage stood at 0.255.

For U19G U24G, the self-cleavage was found to be 0.323. As to U19G U24A, the self-cleavage was determined as 0.472. For U19G G36C the value was 0.351; for U19G G36U, 0.301; for U19G G36A, 0.38. To U19G C29A belongs 0.257. U19G C29U: the self-cleavage stood at 0.316. Take U19G C29G: the self-cleavage was determined as 0.307. For the variant U19C U28A, the self-cleavage was determined as 0.524. As for U19C U28C, the self-cleavage was 0.572. With U19C U28G, the self-cleavage stood at 0.435. To U19G G25A belongs 0.275. With U19G G25C, the self-cleavage is 0.359. For U19G G25U the value was 0.37. For C20A U21A the value was 0.228; for C20A U21C, 0.394. To C20A U21G belongs 0.326; to U19G C38G, 0.354.

As for U19G C38A, the self-cleavage was 0.324. Consider U19G C38U, for which the self-cleavage worked out at 0.364. To C20G G22C belongs 0.43; to C20G G22U, 0.343. For C20G G22A the value was 0.252; for C20G, 0.341; for C20A, 0.541.

For the variant U19C G27U, the self-cleavage was found to be 0.311.

Turning to U19C G27A, the self-cleavage came to 0.382. On to U19C G27C, for which the self-cleavage came out at 0.308. To U19C A41U belongs 0.271; to U19C A41C, 0.429.

With U19C A41G, the self-cleavage stood at 0.228. To U19A G39A belongs 0.297; to U19A G39U, 0.29; to U19A G39C, 0.329.

As for U19A G31U, the self-cleavage turned out to be 0.402. Take U19A G31C: the self-cleavage turned out to be 0.384. For U19A G31A the value was 0.41. To U19C U32A belongs 0.551; to U19C U32C, 0.565; to U19C U32G, 0.642.

As for U19A G45C, the self-cleavage was 0.405.

In the case of U19A G45U, the self-cleavage came to 0.41.

With U19A G45A, the self-cleavage worked out at 0.354. To C20G C29A belongs 0.312. Consider C20G C29G, for which the self-cleavage turned out to be 0.35. To C20G C29U belongs 0.336; to U19G A23C, 0.346. To U19G A23G belongs 0.3; to U19G A23U, 0.23. For U19G C20U, the self-cleavage is 0.306. To U19G C20A belongs 0.316; to U19G C20G, 0.307; to U19A U32C, 0.377. To U19A U32G belongs 0.33; to U19A U32A, 0.321. Regarding C20A G25C, the self-cleavage amounted to 0.287. In the case of C20A G25A, the self-cleavage is 0.309. For the variant C20A G25U, the self-cleavage came to 0.619. Regarding U19A C43G, the self-cleavage amounted to 0.346. Regarding U19A C43A, the self-cleavage was 0.279.

Regarding U19A C43U, the self-cleavage was 0.396. To C20A G39U belongs 0.329; to C20A G39C, 0.393; to C20A G39A, 0.347. Consider C20A G31C, for which the self-cleavage amounted to 0.412. Turning to C20A G31U, the self-cleavage was determined as 0.475.

For the variant C20A G31A, the self-cleavage came to 0.576. For U19C C38A, the self-cleavage was 0.414. Take U19C C38G: the self-cleavage turned out to be 0.407. Regarding U19C C38U, the self-cleavage was found to be 0.36. To U19G G45A belongs 0.424; to U19G G45U, 0.389; to U19G G45C, 0.312. For C20A A44U, the self-cleavage is 0.323.

Turning to C20A A44C, the self-cleavage worked out at 0.366. In the case of C20A A44G, the self-cleavage was 0.848. With C20A A40G, the self-cleavage was determined as 0.326. Consider C20A A40C, for which the self-cleavage turned out to be 0.33.

Consider C20A A40U, for which the self-cleavage was found to be 0.382. To U19G G31C belongs 0.431; to U19G G31U, 0.451; to U19G G31A, 0.553. For C20G C30A the value was 0.335. Regarding C20G C30G, the self-cleavage is 0.37. To C20G C30U belongs 0.255; to C20A A34U, 0.413; to C20A A34G, 0.341. As for C20A A34C, the self-cleavage is 0.34.

Turning to U19C A44G, the self-cleavage was found to be 0.751. For U19C A44C the value was 0.325. In the case of U19C A44U, the self-cleavage was 0.258.
